This assay concerns the target ScNtx-NT647, fluorescently labeled variant of ScNtx. The experiment in a line: MST; 5 nM ScNtx-NT647 held constant, Torpedo nAChR in asolectin-MSP1E3D1 nanodiscs titrated 0.5 nM to 1 μM; PBS pH 7.4, 0.05% Tween, 20 °C, high MST power, 4 % excitation power, triplicate; apparent affinity.

Take “Torpedo muscle-type nicotinic acetylcholine receptor, native, purified, reconstituted in asolectin-MSP1E3D1 lipidic nanodiscs (from UniProt P02710 25-461; P02714 18-506; P02718 22-522; P02712 25-493) (complex)”: the Kd was 28 nM.

For the origin of these results see article PMC9352773.
